Read-outs that look alike come from different tables or passages of the source.
Assays:
DMRT1 R123A = DMRT1 R123A (Homo sapiens, UniProt Q9Y5R6 1-373, R123A); assay: EMSA
DMRT1 R123Q = DMRT1 R123Q (Homo sapiens, UniProt Q9Y5R6 1-373, R123Q); assay: EMSA
SUMO-DMRT1 67-136 [1] = biological target: T1, SUMO-DMRT1 67-136 (Homo sapiens, UniProt Q9Y5R6 67-136); assay: EMSA
SUMO-DMRT1 67-136 [2] = biological target: T1, SUMO-DMRT1 67-136; assay: EMSA; remark: listed apart in the source
[3] = biological target: T2, DMRT1 full-length;DMRT1 R111G (Homo sapiens;Homo sapiens, UniProt Q9Y5R6;Q9Y5R6 1-373;1-373, |R111G); assay: EMSA
T2 sequence (Q9Y5R6 whole entry, stated change not applied, chain 1 of 2): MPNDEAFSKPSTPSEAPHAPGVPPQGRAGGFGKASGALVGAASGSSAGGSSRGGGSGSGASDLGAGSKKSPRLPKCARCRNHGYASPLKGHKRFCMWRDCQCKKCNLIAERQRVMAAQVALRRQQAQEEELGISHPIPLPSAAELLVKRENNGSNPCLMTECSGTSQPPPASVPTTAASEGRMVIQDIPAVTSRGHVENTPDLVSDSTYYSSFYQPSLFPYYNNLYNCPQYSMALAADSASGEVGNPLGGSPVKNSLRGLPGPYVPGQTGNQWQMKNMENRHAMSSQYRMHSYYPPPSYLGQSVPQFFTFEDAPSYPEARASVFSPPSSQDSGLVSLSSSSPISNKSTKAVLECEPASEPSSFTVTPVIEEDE
T2 sequence (Q9Y5R6 whole entry R111G, chain 2 of 2): as the sequence (Q9Y5R6 whole entry, stated change not applied, chain 1 of 2) above, with R111G counted along it

DMRT1 full-length [4] = biological target: T3, DMRT1 full-length (Homo sapiens, UniProt Q9Y5R6 1-373); assay: EMSA
T3 sequence (Q9Y5R6 whole entry): as the sequence (Q9Y5R6 whole entry, stated change not applied, chain 1 of 2) above

DMRT1 full-length [5] = biological target: T3, DMRT1 full-length; assay: EMSA; remark: listed apart in the source
DMRT1 full-length [6] = biological target: T3, DMRT1 full-length; assay: EMSA; remark: listed apart in the source
DMRT1 67-136 = DMRT1 67-136 (Homo sapiens, UniProt Q9Y5R6 67-136); assay: X-ray crystallography
Sequence of DMRT1 67-136 (Q9Y5R6 67-136): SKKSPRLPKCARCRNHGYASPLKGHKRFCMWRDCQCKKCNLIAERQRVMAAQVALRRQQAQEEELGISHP

[7] = biological target: T2, DMRT1 full-length;DMRT1 R111G; assay: EMSA; remark: listed apart in the source

T1 sequence (Q9Y5R6 67-136): as above
Sequence of DMRT1 R123A (Q9Y5R6 whole entry R123A): as the sequence (Q9Y5R6 whole entry, stated change not applied, chain 1 of 2) above, with R123A counted along it
Sequence of DMRT1 R123Q (Q9Y5R6 whole entry R123Q): as the sequence (Q9Y5R6 whole entry, stated change not applied, chain 1 of 2) above, with R123Q counted along it

B1: Site 1 (49 bp) (dsDNA)
DNA 1: GTGGCTGGGCAGAGATTTGATACATTGTTGCTCGATGGAGGTCAGGTCT
DNA 2: AGACCTGACCTCCATCGAGCAACAATGTATCAAATCTCTGCCCAGCCAC
**Q.** What does the source list for B1?
**A.** binding result (DMRT1 R123A): no binding; binding result (DMRT1 R123Q): no binding

B2: Site 4 (27 bp) (dsDNA)
DNA 1: TTGCTATGATACATTGTATCTTGCTGG
DNA 2: CCAGCAAGATACAATGTATCATAGCAA
**Q.** Does B2 bind (SUMO-DMRT1 67-136 [1])?
**A.** binds

B3: Site 1 (27 bp) (dsDNA)
DNA 1: GAGATTTGATACATTGTTGCTCGATGG
DNA 2: CCATCGAGCAACAATGTATCAAATCTC
**Q.** Does B3 bind (SUMO-DMRT1 67-136 [2])?
**A.** binds

**Q.** Does B3 bind [3]?
**A.** binds

**Q.** Does B3 bind (DMRT1 full-length [4])?
**A.** binds

B4: Site 2 (27 bp) (dsDNA)
DNA 1: GAGATTTGATACATTGTTACTTTATGG
DNA 2: CCATAAAGTAACAATGTATCAAATCTC
**Q.** Does B4 bind (DMRT1 full-length [5])?
**A.** binds

B5: Site 3 (27 bp) (dsDNA)
DNA 1: GAGATTTGATACATTATTAATTTATGG
DNA 2: CCATAAATTAATAATGTATCAAATCTC
**Q.** Does B5 bind (DMRT1 full-length [6])?
**A.** binds

B6: Site 1 crystal 25-mer (dsDNA)
DNA 1: CGAGATTTGATACATTGTTGCTCGA
DNA 2: TCGAGCAACAATGTATCAAATCTCG
**Q.** Does B6 bind (DMRT1 67-136)?
**A.** binds

B7: Sox9 site (dsDNA)
DNA 1: GTGGCTGGGCACCCTGCAGAGACAATGTTTCCAGCTGCAGGTCAGGTCT
DNA 2: AGACCTGACCTGCAGCTGGAAACATTGTCTCTGCAGGGTGCCCAGCCAC
**Q.** Does B7 bind [7]?
**A.** binds

**Q.** Does B7 bind (DMRT1 full-length [4])?
**A.** binds
